Laboratory results as given in paper PMC6536502, “Structural insights into DNA recognition by AimR of the arbitrium communication system in the SPbeta phage” (Cell Discovery, 2019).

Columns and labels:
Test in all cases: EMSA; EMSA: 25 mM Tris-HCl pH 8.0, 150 mM NaCl, 5 mM MgCl2, 5 mM DTT, 0.1 mg/ml BSA, 10% glycerol, 50 ug/ml salmon sperm DNA, 4 C, 15 min; smFRET: 20 mM phosphate pH
Conditions in all cases: protein: recombinant; tags: 6xHis removed by drICE; chain copies: 2
AimR N46D = target: T1, AimR N46D (Bacillus phage SPbeta, UniProt O64094 1-386, N46D)
T1 sequence: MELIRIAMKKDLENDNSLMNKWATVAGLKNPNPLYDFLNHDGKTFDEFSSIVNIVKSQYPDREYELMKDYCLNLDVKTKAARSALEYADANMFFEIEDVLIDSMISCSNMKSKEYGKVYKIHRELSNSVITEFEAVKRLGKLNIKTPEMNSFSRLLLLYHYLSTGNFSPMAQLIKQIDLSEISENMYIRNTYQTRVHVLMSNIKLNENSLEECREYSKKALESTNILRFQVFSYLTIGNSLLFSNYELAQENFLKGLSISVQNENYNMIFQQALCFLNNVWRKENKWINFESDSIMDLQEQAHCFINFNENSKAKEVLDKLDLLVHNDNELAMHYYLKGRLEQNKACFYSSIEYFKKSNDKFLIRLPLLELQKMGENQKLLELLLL

AimR T78D = target: T2, AimR T78D (Bacillus phage SPbeta, UniProt O64094 1-386, T78D)
T2 sequence: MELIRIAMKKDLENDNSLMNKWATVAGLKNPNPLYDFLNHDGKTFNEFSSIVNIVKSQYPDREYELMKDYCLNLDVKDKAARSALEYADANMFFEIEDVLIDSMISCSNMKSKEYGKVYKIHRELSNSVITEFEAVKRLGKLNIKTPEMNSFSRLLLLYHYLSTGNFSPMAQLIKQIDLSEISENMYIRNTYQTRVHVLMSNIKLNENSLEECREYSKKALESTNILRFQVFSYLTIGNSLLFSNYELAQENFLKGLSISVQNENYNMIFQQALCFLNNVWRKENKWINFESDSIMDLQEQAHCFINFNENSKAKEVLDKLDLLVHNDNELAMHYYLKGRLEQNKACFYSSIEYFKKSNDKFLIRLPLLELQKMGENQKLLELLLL

AimR K120D = target: T3, AimR K120D (Bacillus phage SPbeta, UniProt O64094 1-386, K120D)
T3 sequence: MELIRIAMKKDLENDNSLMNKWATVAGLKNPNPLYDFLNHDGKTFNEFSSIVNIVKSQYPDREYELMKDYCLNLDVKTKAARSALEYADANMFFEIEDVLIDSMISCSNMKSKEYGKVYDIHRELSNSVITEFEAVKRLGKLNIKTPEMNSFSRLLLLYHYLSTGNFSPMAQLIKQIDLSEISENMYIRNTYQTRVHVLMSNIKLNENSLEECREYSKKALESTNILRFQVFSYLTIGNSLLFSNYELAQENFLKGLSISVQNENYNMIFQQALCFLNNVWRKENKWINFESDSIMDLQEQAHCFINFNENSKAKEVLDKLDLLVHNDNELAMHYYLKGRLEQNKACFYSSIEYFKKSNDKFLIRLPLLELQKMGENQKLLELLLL

Measured: binding result

B1: 31 bp aimX-upstream palindromic DNA (dsDNA)
DNA 1: ACTTAAATATTAGGTTTTAATAACATCTAGT
DNA 2: ACTAGATGTTATTAAAACCTAATATTTAAGT
binds: AimR N46D | AimR T78D | AimR K120D
